Experimental data taken from publication PMC2848554, “Topology and Organization of the Salmonella typhimurium Type III Secretion Needle Complex Components” (PLoS Pathogens, 2010).

B1: PrgH (natural protein)
chain: METSKEKTITSPGPYIVRLLNSSLNGCEFPLLTGRTLFVVGQSDALTASGQLPDIPADSFFIPLDHGGVNFEIQVDTDATEIILHELKEGNSESRSVQLNTPIQVGELLILIRPESEPWVPEQPEKLETSAKKNEPRFKNGIVAALAGFFILGIGTVGTLWILNSPQRQAAELDSLLGQEKERFQVLPGRDKMLYVAAQNERDTLWARQVLARGDYDKNARVINENEENKRISIWLDTYYPQLAYYRIHFDEPRKPVFWLSRQRNTMSKKELEVLSQKLRALMPYADSVNITLMDDVTAAGQAEAGLKQQALPYSRRNHKGGVTFVIQGALDDVEILRARQFVDSYYRTWGGRYVQFAIELKDDWLKGRSFQYGAEGYIKMSPGHWYFPSPL
notes: PrgH, inner ring protein of the SPI-1 type III secretion needle complex, S. typhimurium; wild-type chromosomal allele; the N-terminal amino group of Met-1 (peptide METSK) was cross-linked; predicted transmembrane domain 142-162; Stood in the assays as a subunit of the whole purified needle complex or of the ΔinvG substructure, not as an isolated protein; source: endogenous, S. typhimurium strains …
B2: PrgK (natural protein)
chain: CKDKDLLKGLDQEQANEVIAVLQMHNIEANKIDSGKLGYSITVAEPDFTAAVYWIKTYQLPPRPRVEIAQMFPADSLVSSPRAEKARLYSAIEQRLEQSLQTMEGVLSARVHISYDIDAGENGRPPKPVHLSALAVYERGSPLAHQISDIKRFLKNSFADVDYDNISVVLSERSDAQLQAPGTPVKRNSFATSWIVLIILLSVMSAGFGVWYYKNHYARNKKGITADDKAKSSNE
modifications: lipoprotein; lipidated N-terminal cysteine (Cys-18)
notes: PrgK, lipoprotein of the SPI-1 needle complex base, S. typhimurium; predicted transmembrane domain 207-227; printed residue numbers include the signal peptide; Stood in the assays as a subunit of the purified needle complex or its substructures; source: endogenous, S. typhimurium strains SB905 (w.t.), SB1171 (ΔinvG) and SB906 complemented with plasmid-borne PrgH; purified within needle complexes
B3: PrgH mutant lacking its last 4 amino acids (PrgH^Δ4) (domain or fragment)
chain: METSKEKTITSPGPYIVRLLNSSLNGCEFPLLTGRTLFVVGQSDALTASGQLPDIPADSFFIPLDHGGVNFEIQVDTDATEIILHELKEGNSESRSVQLNTPIQVGELLILIRPESEPWVPEQPEKLETSAKKNEPRFKNGIVAALAGFFILGIGTVGTLWILNSPQRQAAELDSLLGQEKERFQVLPGRDKMLYVAAQNERDTLWARQVLARGDYDKNARVINENEENKRISIWLDTYYPQLAYYRIHFDEPRKPVFWLSRQRNTMSKKELEVLSQKLRALMPYADSVNITLMDDVTAAGQAEAGLKQQALPYSRRNHKGGVTFVIQGALDDVEILRARQFVDSYYRTWGGRYVQFAIELKDDWLKGRSFQYGAEGYIKMSPGHWYF
notes: PrgH of S. typhimurium without its last 4 amino acids; also called C-terminal truncated PrgH; source: S. typhimurium SB906 (chromosomal ΔprgH) complemented with a pWSK29 plasmid, natural promoter; purified within needle complexes; copies: 24
B4: InvG (natural protein)
chain: SEKIPVTGSGFVAKDDSLRTFFDAMALQLKEPVIVSKMAARKKITGNFEFHDPNALLEKLSLQLGLIWYFDGQAIYIYDASEMRNAVVSLRNVSLNEFNNFLKRSGLYNKNYPLRGDNRKGTFYVSGPPVYVDMVVNAATMMDKQNDGIELGRQKIGVMRLNNTFVGDRTYNLRDQKMVIPGIATAIERLLQGEEQPLGNIVSSEPPAMPAFSANGEKGKAANYAGGMSLQEALKQNAAAGNIKIVAYPDTNSLLVKGTAEQVHFIEMLVKALDVAKRHVELSLWIVDLNKSDLERLGTSWSGSITIGDKLGVSLNQSSISTLDGSRFIAAVNALEEKKQATVVSRPVLLTQENVPAIFDNNRTFYTKLIGERNVALEHVTYGTMIRVLPRFSADGQIEMSLDIEDGNDKTPQSDTTTSVDALPEVGRTLISTIARVPHGKSLLVGGYTRDANTDTVQSIPFLGKLPLIGSLFRYSSKNKSNVVRVFMIEPKEIVDPLTPDASESVNNILKQSGAWSGDDKLQKWVRVYLDRGQEAIK
notes: InvG, secretin of the SPI-1 needle complex (outer rings and neck), S. typhimurium; processed InvG starts at Ser-25; printed residue numbers include the signal peptide; Stood in the assays as a subunit of the purified needle complex; source: endogenous, S. typhimurium strain SB905 (w.t.) and SB906 complemented with plasmid-borne PrgH; purified within needle complexes

Tests used:
[1] = target: B4; assay: cross-linking; sucrose gradient purified whole needle complexes (about 1 mg/ml, w.t. strain SB905) on ice with 200 µM BS2G-d0/d4 for 30 or 60 min; single particles re-purified on sucrose gradients; tryptic digestion in solution, high-resolution mass spectrometry, xQuest score above 15; details: both partners purified
[2] = target: B1; assay: as above; details: both partners purified
[3] = target: the molecule itself; assay: negative-stain electron microscopy, single particle analysis; purified needle complexes incubated in 10 mM sodium phosphate pH 10.4 (legend: pH 10.5), 0.5 M NaCl, 0.1% LDAO, 15 min at 37°C, sucrose gradient, then negative stain (PTA or NanoVan); no symmetry imposed, rotational cross-correlation
[4] = target: B3; assay: as above; details: both partners purified
[5] = target: B4; assay: negative-stain electron microscopy; purified needle complexes of the PrgH^Δ4 strain, without high pH treatment; negative stain; details: both partners purified
[6] = target: the molecule itself; assay: cryo electron microscopy, single particle class averages; purified complexes from wild type and ΔinvG strains, vitrified; two-dimensional class averages and their density difference

## B1
[1]
  binding result: binds

## B2
[2]
  binding result: binds
[3]
  stoichiometry N: 24
[4]
  binding result: binds

## B3
[3]
  stoichiometry N: 24
[5]
  binding result: binds

## B4
[6]
  binding result: binds
